This passage reports amyloid nucleation score results from the supplement of paper PMC12042874.

± gives the uncertainty stated by the source.

The nature of the series: amyloid nucleation score (Sup35N fusion, yeast selection) (log enrichment); library NNK2; higher = more nucleation; inactive = no reads after selection. In outline:
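After 24 hours of induction with 100 μM copper sulfate, psi-negative yeast expressing peptides of 20 random codons fused to Sup35N were grown for 7 days at 30°C on medium lacking adenine and uracil. Input and output plasmid inserts were sequenced with Illumina, and sequences with under 100 input reads were discarded. Scores for nucleation are the DiMSum log enrichment of output over input reads, centred on the mode score of non-aggregating sequences.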
The substance KISSLLGWLWRITIRRLGRA had an amyloid nucleation score of 0.617 ± 0.65.

TNSGMWGKLSACFYFVMQYL returned an amyloid nucleation score of -0.936 ± 0.27.

With SYKMGEFTTFSLSRICK, the amyloid nucleation score was 1.12 ± 0.27.

Turning to AWLVLWDIAI, the amyloid nucleation score was found to be 0.583 ± 0.36.

SRVSLHNES returned an amyloid nucleation score of -0.453 ± 1.1.

TTLVSSGYKYFCDVFTGVNA displayed an amyloid nucleation score of -1.45 ± 0.63.

In the case of SEAYEGFSYSVLQYEP, the amyloid nucleation score is -0.092 ± 0.36.

LKPSSFVYIITDQFSNHIVM yielded an amyloid nucleation score of 5.84 ± 0.065.

Take DYYYIPSSIVSTIFKEFSPL: the amyloid nucleation score is -1.97 ± 0.78.

On to LVNSGKLVIPPAVSWWYNWF, for which the amyloid nucleation score is -0.763 ± 0.37.

Substance CVMIESLKVFISPWLASRIR showed an amyloid nucleation score of -0.291 ± 0.65.

Take FVPFYYKADKLTILSS: the amyloid nucleation score entry is “inactive”.

For the substance SLKMRNRWGIDVVE, the amyloid nucleation score turned out to be 0.386 ± 0.23.

NGWLFFWFSIRITTSQVTSL gave an amyloid nucleation score of 2.54 ± 0.098.

Turning to TYDSYRVIYISY, the amyloid nucleation score was -0.372 ± 0.61.

Take NPETQYASLGRS: the amyloid nucleation score was -0.306 ± 0.38.

With FDSYTIMVI, the amyloid nucleation score came to 0.682 ± 0.21.

SGLVWVTN came in with an amyloid nucleation score of -0.018 ± 1.1.

Substance CCDVRS displayed an amyloid nucleation score of 0.558 ± 0.51.

Turning to FLGKDWYVVTSVVKYTNAFF, the amyloid nucleation score came to 0.104 ± 0.45.

In turn, FIADYYGGKTHGNLMSALTC displayed an amyloid nucleation score of 1.06 ± 0.53.

For YLPVLEVVPTNGVPHDRFWS, the amyloid nucleation score turned out to be 1.08 ± 0.29.

In turn, MGDTRNGYFSRMLFYTDCPW had an amyloid nucleation score of 0.037 ± 0.43.

The substance RTDRLCARHLGLFDDTVPET yielded an amyloid nucleation score of 0.664 ± 0.21.

TAHHITSVWYVVLVRLRFRQ showed an amyloid nucleation score of 1.76 ± 0.35.

In turn, HRLVGTC gave an amyloid nucleation score of 1.86 ± 0.21.

The substance TDYVRHKRRNYCLL displayed an amyloid nucleation score of 1.12 ± 0.43.

For the substance YSTFSGH, the amyloid nucleation score amounted to 0.806 ± 0.27.

Take STSSKVGVEAYTRDDRHLLS: the amyloid nucleation score was 1.01 ± 0.19.

Consider GVTFSSMLRPFSAIAKRLVV, for which the amyloid nucleation score turned out to be 0.733 ± 0.56.

YQRRRSGGLELDWSNTMQGC showed an amyloid nucleation score of -0.015 ± 0.31.

The substance VMVCGTFANKLRLPVSIELT had an amyloid nucleation score of 0.534 ± 0.28.

In turn, NYCVLSFDISGYAFYKEGLG displayed an amyloid nucleation score of -0.492 ± 1.1.

Substance SMYVINRSI showed an amyloid nucleation score of -0.198 ± 0.31.

With YCGDLRCCKTHLSCRSCVSN, the amyloid nucleation score entry was “inactive”.

On to FKLICTRSWLRLG, for which the amyloid nucleation score was found to be 3.91 ± 0.056.

LSLLEGKVWLRWY displayed an amyloid nucleation score of 1.2 ± 0.61.

SWLYIQFFNLVLKTIVGLGV yielded an amyloid nucleation score of 0.026 ± 1.1.

HPMLLMKNARG: the amyloid nucleation score is -0.086 ± 0.27.

Turning to GGDAYGRINAASYARIPRLS, the amyloid nucleation score was 0.902 ± 0.22.

On to SPLSSKDCYGKTERSVWHVM, for which the amyloid nucleation score is 0.588 ± 0.4.

In the case of CWGVVGSAAGWYSGTK, the amyloid nucleation score was 1.46 ± 0.21.

On to FFIESSMLWYWDLKRYPMTL, for which the amyloid nucleation score is -0.225 ± 0.54.

For RSAFHCNWLISISSGKVSHM, the amyloid nucleation score was -0.452 ± 0.55.

In the case of NSKYPGVLYCFYRGFGRRVY, the amyloid nucleation score entry is “inactive”.

For PHLASPYHHPCNPQFLFPYL, the amyloid nucleation score amounted to 0.016 ± 1.1.

Substance TTPGTDSLMAEII displayed an amyloid nucleation score of 1.01 ± 0.49.

FGSVRASGISDFGRMDHGTG: the amyloid nucleation score was -0.079 ± 0.76.

For the substance GMPVLV, the amyloid nucleation score was found to be 0.093 ± 0.26.

FHTNCYKIMMSGRHFHVSFD registered an amyloid nucleation score of 8.932 ± 0.046.

In turn, VWLFNLKGPLTRNLLHNLFA displayed an amyloid nucleation score of -0.678 ± 0.63.

Consider PEFGTDIPKSRRRKEGCRGG, for which the amyloid nucleation score came out at 0.717 ± 0.23.

As to HTRLHKGIQRVEIGSMNGK, the amyloid nucleation score was -0.637 ± 1.1.

Regarding GMYLVENLLFRAQCRSTHWQ, the amyloid nucleation score was 1.25 ± 0.37.

For QDSFRGLGYFWGPQHETVVM, the amyloid nucleation score was -1.23 ± 0.48.

RQLHLVLNRVGWMLWYTH: the amyloid nucleation score was 0.684 ± 0.26.

On to FSVYRETERLGMSFRVRLWM, for which the amyloid nucleation score is 5.25 ± 0.073.

Regarding ILVMKFNSWLADEDRVRSVI, the amyloid nucleation score turned out to be 1.21 ± 0.27.

Substance DRLGTYSS had an amyloid nucleation score of 0.409 ± 0.54.

QTNYEAHFDRVINYAFVHLF gave an amyloid nucleation score of -0.392 ± 0.79.

VVIAKDIMFSGSRINMVGSV showed an amyloid nucleation score of -1.23 ± 1.1.

FFSSTMNCVSLKRVKL had an amyloid nucleation score of -0.432 ± 1.1.

On to VLPGKVRPFCGSMCNSFFSL, for which the amyloid nucleation score came out at 0.157 ± 1.

ILILVLIECLILWFCYTMCI yielded an amyloid nucleation score of 3.16 ± 0.049.

Take KTIRRDVCIVVLSLQSDLNM: the amyloid nucleation score came to 5.62 ± 0.069.

VVLRELRIYIMNVWDPRGTL yielded an amyloid nucleation score of -0.998 ± 0.62.

In turn, VYHSGMTLFNFCCSMHLVEL returned an amyloid nucleation score of 9.22 ± 0.041.

KLSWRIRA had an amyloid nucleation score of 0.403 ± 0.42.

Consider SSSSPHLDNLLGSGRLEIPS, for which the amyloid nucleation score is 0.56 ± 0.56.

The substance IPNYLSYTWILYNYTFLGAC had an amyloid nucleation score of 0.719 ± 0.38.

As for SFLWCPGG, the amyloid nucleation score came to 0.221 ± 0.33.

Substance EELSIQRALLVCPKKEGFLE registered an amyloid nucleation score of 3.69 ± 0.082.

With MFKSCQEGIKHWNNPT, the amyloid nucleation score came to 3.59 ± 0.051.

As for TVHFLHILIIFRSWSEGMPV, the amyloid nucleation score was -0.345 ± 0.74.

For TNSTPPVKLYWIMKLLDRFR, the amyloid nucleation score entry was “inactive”.

Consider DSIFFYTGMQTDYHAHMSPC, for which the amyloid nucleation score result was “inactive”.

Consider DFKDEGYQRRV, for which the amyloid nucleation score was -0.37 ± 0.65.

The substance NTKYRRFFFNTVRLLHM showed an amyloid nucleation score of -0.28 ± 0.79.

Take DGRKALI: the amyloid nucleation score turned out to be 1.87 ± 0.35.

Turning to GYCKVGCFHLRYGSACCVRM, the amyloid nucleation score amounted to 0.511 ± 0.41.

For the substance CIMVSIVPKGVCLGVLVAVA, the amyloid nucleation score was 0.345 ± 0.28.

As for VIVKAVVDIIGSN, the amyloid nucleation score was 0.147 ± 0.76.

RQAKPICCHMVLLDSWPKSM displayed an amyloid nucleation score of 0.164 ± 0.35.

IDILWVRVNAFLSVVEIRSN returned an amyloid nucleation score of 0.949 ± 0.15.

Take LRLARKRVECFVLLADFNNR: the amyloid nucleation score is 0.306 ± 0.53.

As for WFGLDVNCLRSWFGLWKFVE, the amyloid nucleation score was determined as 0.089 ± 0.56.

Take FWGIMNSILTETLL: the amyloid nucleation score is -1.53 ± 1.1.

NWDNSNLVFLYNSGLGNYVS: the amyloid nucleation score is -0.874 ± 0.78.

For the substance VWYIALLQCQVRITYKGRVR, the amyloid nucleation score amounted to 5.43 ± 0.073.

DVNISASNEVALIASDRLLC returned an amyloid nucleation score of -0.149 ± 0.55.

SRNIMLGWVPWYYCWKAPSI yielded an amyloid nucleation score of 0.034 ± 0.63.

For the substance RLMCVLMGYRGSSGVDCRSA, the amyloid nucleation score stood at 0.185 ± 0.27.

In turn, RFSVDRSSRELICMLGQFDN gave an amyloid nucleation score of 0.356 ± 0.38.

In turn, IVVRL gave an amyloid nucleation score of 0.639 ± 0.41.

In the case of KTREFNEQIVYGASVYVYQG, the amyloid nucleation score amounted to 0.672 ± 0.43.

Substance AHRYGR came in with an amyloid nucleation score of 1.57 ± 0.43.

With DKSCLISVMLICLL, the amyloid nucleation score was 5.21 ± 0.059.

With YSFNLCNS, the amyloid nucleation score was -0.013 ± 0.45.

As to HQLPVHEPYEYWLQQGSNCP, the amyloid nucleation score worked out at 0.353 ± 0.56.

In turn, VVTLRCSIVKEDTNGLLPGV displayed an amyloid nucleation score of 2.79 ± 0.09.

FICALTMYICSLY displayed an amyloid nucleation score of 7.389 ± 0.027.

The substance SNGPW registered an amyloid nucleation score of -0.512 ± 0.76.

AVLFNDTWGGFAPNWYLLLS: the amyloid nucleation score is 0.474 ± 0.38.

For LYLSVPQYYFSCLFSMVEVQ, the amyloid nucleation score was -1.07 ± 0.61.

Regarding FVKGS, the amyloid nucleation score result was “inactive”.

With VVRRYICRVLRMFWYWVVRE, the amyloid nucleation score was -0.145 ± 0.76.

In turn, FCSDGK returned an amyloid nucleation score of 0.186 ± 0.3.

As to VGSDWKSVNIFAVDEPGSTY, the amyloid nucleation score is -1.43 ± 0.55.

Regarding SSTYIERGLSHGKDRT, the amyloid nucleation score turned out to be 0.731 ± 0.46.

For the substance YYLVYKAGKMLIEYHKSYNW, the amyloid nucleation score was -1.1 ± 1.

YIVQWSFMVSRSQ gave an amyloid nucleation score of 1.62 ± 0.086.

For the substance IDHYLVLASLDW, the amyloid nucleation score was -0.41 ± 0.47.

Regarding RWARQRAWTRLLNGE, the amyloid nucleation score came out at 1.18 ± 0.48.

RYNHRFKVVLSHNIDLWQGS came in with an amyloid nucleation score of 0.689 ± 0.47.

Regarding WRQLRSPVYRPYCL, the amyloid nucleation score was -0.124 ± 0.32.

In turn, TFSWMTPNWRSHYMLDCDPG registered an amyloid nucleation score of -0.502 ± 0.79.

Consider RYSNMLN, for which the amyloid nucleation score stood at 3.83 ± 0.096.

For the substance YSSVSR, the amyloid nucleation score is -1.05 ± 0.55.

Substance PGHLLRILVFSNNYAYQRDI registered an amyloid nucleation score of -0.647 ± 0.42.

Take LCGHSNTAVWARHPEYSLVS: the amyloid nucleation score entry was “inactive”.

DHPYTRKFI: the amyloid nucleation score was -0.311 ± 0.79.

Substance LYSLEKTCQVELCRRISTLL registered an amyloid nucleation score of -1.35 ± 0.75.

On to MLFGFFGIPRGSRVLFSNV, for which the amyloid nucleation score entry is “inactive”.

The substance SGLLSFLTHSLFEFLSNKQW came in with an amyloid nucleation score of -0.557 ± 1.1.

In turn, NNINLTYRLYSVLDHYKLYE had an amyloid nucleation score of 2.66 ± 0.088.

Turning to IRWCF, the amyloid nucleation score came to 5.34 ± 0.09.

With ILRYSFCRMLFAPRVTLIRF, the amyloid nucleation score turned out to be 1.74 ± 0.25.

Regarding QSYWSWLKKVSRFVYPHTRS, the amyloid nucleation score came to 0.291 ± 0.26.

In turn, FQIMKAYDTLPFLVYPVTGD showed an amyloid nucleation score of -0.117 ± 0.79.

Substance DVHNMGSPGVLAMLVTSDGK gave an amyloid nucleation score of 0.876 ± 0.74.

In turn, WLRLPICDLQLLNWADLRFV returned an amyloid nucleation score of 0.236 ± 1.1.

Take TGAVKLTSAAIINCTYHARM: the amyloid nucleation score result is “inactive”.

Regarding RVASVSYVSVWYEMCQCFRG, the amyloid nucleation score came to 9.503 ± 0.082.

For the substance SRRDGCGAPSKTSNWA, the amyloid nucleation score came to 0.64 ± 0.8.

On to YLKGNIKATVFTNSPMLV, for which the amyloid nucleation score was -0.085 ± 0.79.

The substance SEFVGSYWGFDLMLGLD yielded an amyloid nucleation score of -0.807 ± 1.

In turn, LTYILFGYFMASCFMCFFVS returned an amyloid nucleation score of 0.138 ± 1.1.

As to FSWFDWKGYVLSWIRSYSSE, the amyloid nucleation score entry was “inactive”.

Substance TNIYLGMIVRVHLLFLMELA displayed an amyloid nucleation score of -0.891 ± 1.1.
